Assay results published in patent US11951175B2, “Bioconjugates containing sulfamide linkers for use in treatment” (priority 2016, dated 2024).

B1: EndoSH (protein)
chain: MPSIDSLHYLSENSKKEFKEELSKAGQESQKVKEILAKAQQADKQAQELAKMKIPEKIPMKPLHGPLYGGYFRTWHDKTSDPTEKDKVNSMGELPKEVDLAFIFHDWTKDYSLFWKELATKHVPKLNKQGTRVIRTIPWRFLAGGDNSGIAEDTSKYPNTPEGNKALAKAIVDEYVYKYNLDGLDVDVEHDSIPKVDKKEDTAGVERSIQVFEEIGKLIGPKGVDKSRLFIMDSTYMADKNPLIERGAPYINLLLVQVYGSQGEKGGWEPVSNRPEKTMEERWQGYSKYIRPEQYMIGFSFYEENAQEGNLWYDINSRKDEDKANGINTDITGTRAERYARWQPKTGGVKGGIFSYAIDRDGVAHQPKKYAKQKEFKDATDNIFHSDYSVSKALKTVMLKDKSYDLIDEKDFPDKALREAVMAQVGTRKGDLERFNGTLRLDNPAIQSLEGLNKFKKLAQLDLIGLSRITKLDRSVLPANMKPGKDTLETVLETYKKDNKEEPATIPPVSLKVSGLTGLKELDLSGFDRETLAGLDAATLTSLEKVDISGNKLDLAPGTENRQIFDTMLSTISNHVGSNEQTVKFDKQKPTGHYPDTYGKTSLRLPVANEKVDLQSQLLFGTVTNQGTLINSEADYKAYQNHKIAGRSFVDSNYHYNNFKVSYENYTVKVTDSTLGTTTDKTLATDKEETYKVDFFSPADKTKAVHTAKVIVGDEKTMMVNLAEGATVIGGSADPVNARKVFDGQLGSETDNISLGWDSKQSIIFKLKEDGLIKHWRFFNDSARNPETTNKPIQEASLQIFNIKDYNLDNLLENPNKFDDEKYWITVDTYSAQGERATAFSNTLNNITSKYWRVVFDTKGDRYSSPVVPELQILGYPLPNADTIMKTVTTAKELSQQKDKFSQKMLDELKIKEMALETSLNSKIFDVTAINANAGVLKDCIEKRQLLKKGGGGSGGGGSGGGGSHHHHHHEFGGGGSGGGGSGGGGSAPAPVKQGPTSVAYVEVNNNSMLNVGKYTLADGGGNAFDVAVIFAANINYDTGTKTAYLHFNENVQRVLDNAVTQIRPLQQQGIKVLLSVLGNHQGAGFANFPSQQAASAFAKQLSDAVAKYGLDGVDFDDEYAEYGNNGTAQPNDSSFVHLVTALRANMPDKIISLYNIGPAASRLSYGGVDVSDKFDYAWNPYYGTWQVPGIALPKAQLSPAAVEIGRTSRSTVADLARRTVDEGYGVYLTYNLDGGDRTADVSAFTRELYGSEAVRTP
modifications: fusion protein EndoSH

What was measured:
[1] = reported value for Adcetris; cited from earlier work
[2] = Rat safety study with cAC10 ADCs 115, 116 and Adcetris; format: in vivo, Wistar rats; settings: as in legend of FIG. 19a-c: 115/116 at 40, 60, 70 or 80 mg/kg, Adcetris at 15, 20 or 40 mg/kg, mean body weight
Procedure: […] The test items were administered via intravenous (bolus) injection using a microflex infusion set introduced into a tail vein (2 mL/kg at 1 mL/min). One group of animals was treated with vehicle (control). After dosing, all animals were maintained for a 12-day observation period. Surviving animals were euthanized on day 12. Each animal was weighed at the time of randomization/selection, prior to dosing (day 0) and on all subsequent days up to day 12. Any individual animal with a single observation of >30% body weight loss or three consecutive measurements of >25% body weight loss was euthanized. All animals (including any found dead or killed moribund) were submitted to full necropsy procedures. Histopathological examinations of the liver, spleen and sciatic nerve was performed for all animals. Blood samples (including for animals killed moribund) were collected and subjected to determination of both haematological as well as serum clinical chemistry parameters.

[3] = test system: Trastuzumab having high-mannose glycans; experiment: Trimming of high-mannose trastuzumab glycans by EndoSH; format: biochemical; settings: 1 w/w % EndoSH, 37° C., after 3 hours, 25 mM Tris pH 8, MS analysis
Procedure: Trastuzumab having high-mannose glycans (obtained via transient expression in CHO K1 cells in the presence of kifunensine performed by Evitria (Zurich, Switzerland)) (14 mg/mL) in 25 mM Tris buffer pH 8, was trimmed using a concentration of either 0.1 or 1 w/w % EndoSH. The reactions, 350 μg high-mannose trastuzumab (25 μL) and the appropriate amount of EndoSH, were stirred at 37° C. and analyzed by MS analysis over time, 1-3 hours. Samples were subjected to Fabricator treatment prior to analysis.

Trastuzumab = experiment: Trimming of trastuzumab glycans by EndoSH; format: biochemical; settings: 0.1 w/w % EndoSH, 37° C., after 1 hour, 25 mM Tris pH 8, MS analysis
Procedure: Trastuzumab (obtained from Epirus biopharma (Utrecht, The Netherlands); 14 mg/mL) in 25 mM Tris buffer pH 8, was trimmed using a concentration of either 0.1 or 1 w/w % EndoSH. The reactions, 350 μg trastuzumab (25 μL) and the appropriate amount of EndoSH, were stirred at 37° C. and analyzed by MS analysis over time, 1 to 3 hours. Samples were subjected to Fabricator treatment prior to analysis.

| Molecule | MTD (reported) [1] [mg/kg] | MTD [2] [mg/kg] | conversion to the trimmed product (core GlcNAc) [3] | conversion to the trimmed product (core GlcNAc) (Trastuzumab) |
| --- | --- | --- | --- | --- |
| Adcetris: positive control; DAR4 ADC with antibody brentuximab and payload MMAE [reference compound] | 18 | 15 | – | – |
| B1 | – | – | Full conversions | Full conversions |
